The text below walks through data of patent US20170002055A1, “Novel peptides and combination of peptides for use in immunotherapy against ovarian cancer and other cancers” (immatics biotechnologies GmbH, priority 2015, published 2017).

In the experiment the target is HLA-A*02:01 (Homo sapiens, UniProt P04439, D140Y/D185E/D98H/E176V/E277Q/G131W/G231S/I119V/I121R/I166T/I218V/L300P/L318F/N151K/N90K/P208A/P217A/Q86G/Q94H/R138H/R169H/T345S). The experiment can be described thus: MHC binding assay (UV-ligand exchange, β2m ELISA, peptide exchange yield). The note with it: MHC class I binding score; binding to HLA-A*02:01 ranged by peptide exchange yield (UV-ligand exchange, β2m ELISA). The text has this: Candidate peptides for T cell based therapies according to the present invention were further tested for their MHC binding capacity (affinity). The individual peptide-MHC complexes were produced by UV-ligand exchange, where a UV-sensitive peptide is cleaved upon UV-irradiation, and exchanged with the peptide of interest as analyzed. Only peptide candidates that can effectively bind and stabilize the peptide-receptive MHC molecules prevent dissociation of the MHC complexes. To determine the yield of the exchange reaction, an ELISA was performed based on the detection of the light chain (β2m) of stabilized MHC complexes. The assay was performed as generally described in Rodenko et al. (Rodenko et al., 2006).
96 well MAXISorp plates (NUNC) were coated over night with 2 ug/ml streptavidin in PBS at room temperature, washed 4× and blocked for 1h at 37° C. in 2% BSA containing blocking buffer. […] Peptide-MHC monomers of the UV-exchange reaction were diluted 100 fold in blocking buffer. Samples were incubated for 1h at 37° C., washed four times, incubated with 2 ug/ml HRP conjugated anti-β2m for 1h at 37° C., washed again and detected with TMB solution that is stopped with […]. Absorption was measured at 450 nm. Candidate peptides that show a high exchange yield (preferably higher than 50%, most preferred higher than 75%) are generally preferred for a generation and production of antibodies or fragments thereof, and/or T cell receptors or fragments thereof, as they show sufficient avidity to the MHC molecules and prevent dissociation of the MHC complexes.
Take “1 (SLMEPPAVLLL; listed as Homo sapiens) [compound 1]”: the Peptide exchange entry was ““+++” (≧50 = +++)”.
For “4 (GIMEHITKI; listed as Homo sapiens) [compound 4]”, the Peptide exchange entry was ““++++” (≧75% = ++++)”.
Regarding “6 (VLVSDGVHSV; listed as Homo sapiens) [compound 6]”, the Peptide exchange entry is given as ““+++” (≧50 = +++)”.
Then “9 (GAAKDLPGV; listed as Homo sapiens) [compound 9]”, with ““++” (≧20% = ++)”; and “10 (FLATFPLAAV; listed as Homo sapiens) [compound 10]”, with ““++++” (≧75% = ++++)”.
To “12 (SLWPDPMEV; listed as Homo sapiens) [compound 12]” belongs ““+++” (≧50 = +++)”.
Then “13 (YLMDESLNL; listed as Homo sapiens) [compound 13]”, with ““+++” (≧50 = +++)”.
As for “14 (AAYGGLNEKSFV; listed as Homo sapiens) [compound 14]”, the Peptide exchange result is given as ““+++” (≧50 = +++)”.
To “15 (VLLTFKIFL; listed as Homo sapiens) [compound 15]” belongs ““++” (≧20% = ++)”; to “16 (VLFQGQASL; listed as Homo sapiens) [compound 16]”, ““+++” (≧50 = +++)”.
For “18 (YLVAKLVEV; listed as Homo sapiens) [compound 18]”, the Peptide exchange entry is on record as ““++” (≧20% = ++)”.
To “20 (RMIEYFIDV; listed as Homo sapiens) [compound 20]” belongs ““+++” (≧50 = +++)”.
For the substance “21 (VLDELDMEL; listed as Homo sapiens) [compound 21]”, the Peptide exchange entry is reported as ““++” (≧20% = ++)”.
To “22 (IMEENPGIFAV; listed as Homo sapiens) [compound 22]” belongs ““+++” (≧50 = +++)”; to “23 (VLLDDIFAQL; listed as Homo sapiens) [compound 23]”, ““+++” (≧50 = +++)”.
Consider “24 (SLSDGLEEV; listed as Homo sapiens) [compound 24]”, for which the Peptide exchange entry is recorded as ““++” (≧20% = ++)”.
Then “25 (FLPDEPYIKV; listed as Homo sapiens) [compound 25]”, with ““+++” (≧50 = +++)”; and “26 (ALLELAEEL; listed as Homo sapiens) [compound 26]”, with ““+++” (≧50 = +++)”; and “27 (ILADIVISA; listed as Homo sapiens) [compound 27]”, with ““+++” (≧50 = +++)”.
Consider “28 (QLLDETSAITL; listed as Homo sapiens) [compound 28]”, for which the Peptide exchange entry was ““+++” (≧50 = +++)”.
Then “29 (KMLGIPISNILMV; listed as Homo sapiens) [compound 29]”, with ““+++” (≧50 = +++)”; and “30 (LILDWVPYI; listed as Homo sapiens) [compound 30]”, with ““+++” (≧50 = +++)”.
Then “31 (YLAPELFVNV; listed as Homo sapiens) [compound 31]”, with ““++” (≧20% = ++)”; and “32 (KLDDLTQDLTV; listed as Homo sapiens) [compound 32]”, with ““++” (≧20% = ++)”.
As for “33 (VLLSLLEKV; listed as Homo sapiens) [compound 33]”, the Peptide exchange result is ““++” (≧20% = ++)”.
As to “34 (ILVEADSLWVV; listed as Homo sapiens) [compound 34]”, the Peptide exchange result was ““+++” (≧50 = +++)”.
To “35 (KINDTIYEV; listed as Homo sapiens) [compound 35]” belongs ““+++” (≧50 = +++)”; to “39 (SVAPNLPAV; listed as Homo sapiens) [compound 39]”, ““+++” (≧50 = +++)”.
For the substance “41 (SLMPHIPGL; listed as Homo sapiens) [compound 41]”, the Peptide exchange entry is given as ““+++” (≧50 = +++)”.
To “42 (VLLQKIVSA; listed as Homo sapiens) [compound 42]” belongs ““+++” (≧50 = +++)”.
For “43 (VLSSLEINI; listed as Homo sapiens) [compound 43]”, the Peptide exchange entry is given as ““++” (≧20% = ++)”.
To “44 (ILDPISSGFLL; listed as Homo sapiens) [compound 44]” belongs ““++” (≧20% = ++)”; to “45 (SLWQDIPDV; listed as Homo sapiens) [compound 45]”, ““+++” (≧50 = +++)”.
To “46 (ILTEENIHL; listed as Homo sapiens) [compound 46]” belongs ““+++” (≧50 = +++)”.
To “47 (ILLSVPLLVV; listed as Homo sapiens) [compound 47]” belongs ““++” (≧20% = ++)”; to “50 (SLSELEALM; listed as Homo sapiens) [compound 50]”, ““+++” (≧50 = +++)”; to “51 (LLPDLEFYV; listed as Homo sapiens) [compound 51]”, ““++++” (≧75% = ++++)”.
Turning to “52 (FLLAHGLGFLL; listed as Homo sapiens) [compound 52]”, the Peptide exchange entry is reported as ““++++” (≧75% = ++++)”.
In the case of “53 (KMIETDILQKV; listed as Homo sapiens) [compound 53]”, the Peptide exchange entry was ““++++” (≧75% = ++++)”.
As to “54 (SLLEQGKEPWMV; listed as Homo sapiens) [compound 54]”, the Peptide exchange entry is recorded as ““+++” (≧50 = +++)”.
To “55 (SLLDLETLSL; listed as Homo sapiens) [compound 55]” belongs ““++++” (≧75% = ++++)”.
Regarding “57 (TLAELQPPVQL; listed as Homo sapiens) [compound 57]”, the Peptide exchange result was ““+++” (≧50 = +++)”.
Regarding “59 (IMEDIILTL; listed as Homo sapiens) [compound 59]”, the Peptide exchange entry is given as ““+++” (≧50 = +++)”.
Turning to “62 (VLLDVSAGQLLM; listed as Homo sapiens) [compound 62]”, the Peptide exchange result is given as ““++++” (≧75% = ++++)”.
Regarding “63 (YLLPSGGSVTL; listed as Homo sapiens) [compound 63]”, the Peptide exchange entry is given as ““++” (≧20% = ++)”.
On to “64 (YAAPGGLIGV; listed as Homo sapiens) [compound 64]”, for which the Peptide exchange entry is ““++” (≧20% = ++)”.
To “66 (FLDENIGGVAV; listed as Homo sapiens) [compound 66]” belongs ““+++” (≧50 = +++)”; to “67 (TLLAEALVTV; listed as Homo sapiens) [compound 67]”, ““+++” (≧50 = +++)”.
As for “68 (SLMELPRGLFL; listed as Homo sapiens) [compound 68]”, the Peptide exchange entry is ““++++” (≧75% = ++++)”.
Then “69 (FQLDPSSGVLVTV; listed as Homo sapiens) [compound 69]”, with ““+++” (≧50 = +++)”; and “70 (GLLDYPVGV; listed as Homo sapiens) [compound 70]”, with ““+++” (≧50 = +++)”; and “71 (GILARIASV; listed as Homo sapiens) [compound 71]”, with ““+++” (≧50 = +++)”.
To “72 (SLLELDGINL; listed as Homo sapiens) [compound 72]” belongs ““+++” (≧50 = +++)”.
To “73 (NIFDLQIYV; listed as Homo sapiens) [compound 73]” belongs ““+++” (≧50 = +++)”; to “74 (ALLDPEVLSIFV; listed as Homo sapiens) [compound 74]”, ““+++” (≧50 = +++)”; to “75 (GLLEVMVNL; listed as Homo sapiens) [compound 75]”, ““+++” (≧50 = +++)”.
Regarding “76 (ILIDSIYKV; listed as Homo sapiens) [compound 76]”, the Peptide exchange result was ““+++” (≧50 = +++)”.
To “77 (ILVEADGAWVV; listed as Homo sapiens) [compound 77]” belongs ““++++” (≧75% = ++++)”; to “78 (SLFSSLEPQIQPV; listed as Homo sapiens) [compound 78]”, ““+++” (≧50 = +++)”.
Then “80 (FLYDNLVESL; listed as Homo sapiens) [compound 80]”, with ““++” (≧20% = ++)”.
For “81 (FLFSQLQYL; listed as Homo sapiens) [compound 81]”, the Peptide exchange entry is ““++” (≧20% = ++)”.
On to “82 (FLSSVTYNL; listed as Homo sapiens) [compound 82]”, for which the Peptide exchange result is reported as ““+++” (≧50 = +++)”.
“83 (ILAPTVMMI; listed as Homo sapiens) [compound 83]”: the Peptide exchange entry is ““+++” (≧50 = +++)”.
For the substance “84 (VTFGEKLLGV; listed as Homo sapiens) [compound 84]”, the Peptide exchange result is on record as ““++” (≧20% = ++)”.
Then “85 (KMSELRVTL; listed as Homo sapiens) [compound 85]”, with ““+++” (≧50 = +++)”; and “86 (NLIGKIENV; listed as Homo sapiens) [compound 86]”, with ““+++” (≧50 = +++)”.
